± gives the uncertainty stated by the source.

This data set is described as follows: amyloid nucleation score (Sup35N fusion, yeast selection) (log enrichment); library NNK2; higher = more nucleation; inactive = no reads after selection. In a few lines: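 Random libraries were run with three technical output replicates. In each, psi-negative yeast expressing Sup35N fused to peptides of 20 random codons were induced 24 hours with 100 μM copper sulfate and grown 7 days at 30°C on medium lacking adenine and uracil, and input and output plasmid inserts were Illumina-sequenced. The nucleation score is the DiMSum log enrichment of output over input reads, centred on the mode score of non-aggregating sequences, and sequences under 100 input reads were excluded.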
As to IAKFTVMDFYGMVVAYSNCR, the amyloid nucleation score is 1.12 ± 0.42.

Turning to NLWSSGKWLMCI, the amyloid nucleation score was -0.292 ± 0.29.

In turn, MYGTTRLVLWAVIDWFEGVG had an amyloid nucleation score of -0.718 ± 0.49.

As to TIGTVMNSLSHFLRPAR, the amyloid nucleation score was found to be 1.15 ± 0.21.

For the substance CVSDCD, the amyloid nucleation score was 3.45 ± 0.14.

On to IDVMVMVRQSAKEQSSVRGC, for which the amyloid nucleation score is 1.34 ± 0.2.

For FCCSKLAPRTGYYSF, the amyloid nucleation score came out at 7.12 ± 0.066.

VYAYRTEFQRW came in with an amyloid nucleation score of 0.886 ± 0.47.

Consider RADALIVTVARFTPPALVKV, for which the amyloid nucleation score came to 1.15 ± 0.68.

Turning to MFEVWFLESRHFINWGICSS, the amyloid nucleation score result was “inactive”.

Consider EFWPIITTSRRDMISNLDQG, for which the amyloid nucleation score was -0.593 ± 0.43.

In turn, DACYGITLDCCETLARSMSC had an amyloid nucleation score of -0.382 ± 0.76.

On to CCYLFRSLRLVGSQIFSQSL, for which the amyloid nucleation score was found to be 0.35 ± 0.8.

The substance FISRVMVSGVLTGLAWPM came in with an amyloid nucleation score of 0.151 ± 0.43.

RNLDFIA yielded an amyloid nucleation score of 3.33 ± 0.068.

The substance WLLVDGEH came in with an amyloid nucleation score of 0.025 ± 0.45.

YVVYMVFGR returned an amyloid nucleation score of 6.323 ± 0.055.

Substance SDCLGKSVVVYNLLGFGR had an amyloid nucleation score of 4.791 ± 0.045.

In turn, WVHGIESSRWRFGL gave an amyloid nucleation score of -0.474 ± 1.1.

For GLVSLLYGY, the amyloid nucleation score amounted to 0.185 ± 0.34.

MLGVSQCVVMVVAGWA: the amyloid nucleation score turned out to be 1.4 ± 0.16.

Regarding FSVLAMAWSS, the amyloid nucleation score is -0.226 ± 1.1.

The substance SCSIPELNNEGIKVCFMNTE yielded an amyloid nucleation score of 1.27 ± 0.13.

Substance DKANTRGGLRCYKMHQFAFV showed an amyloid nucleation score of 1.15 ± 0.21.

GYRYWRTACSALFRWSEMC gave an amyloid nucleation score of 0.948 ± 0.26.

For the substance MGGLNLCLWSSGLMLVGTGR, the amyloid nucleation score is 5.237 ± 0.043.

Turning to TKLEYNTE, the amyloid nucleation score came to 0.118 ± 0.77.

On to WLPYTCNFVMTVSRYSSMRG, for which the amyloid nucleation score entry is “inactive”.

RVIVGRYWQSTDVVYYIWNF: the amyloid nucleation score was -1.59 ± 0.76.

As to VACHVR, the amyloid nucleation score came to 0.975 ± 0.4.

TLHWK showed an amyloid nucleation score of -0.667 ± 0.33.

Substance MAFCCLSVRYTIGRVVAFMY came in with an amyloid nucleation score of -0.4 ± 0.64.

For RVIILNTNDGSVEDMYVESQ, the amyloid nucleation score came to 3.98 ± 0.049.

With PSWDDFSSPEVS, the amyloid nucleation score is -0.524 ± 0.39.

The substance LNSGCAVVLCADSRHSNEPD showed an amyloid nucleation score of -0.062 ± 0.65.

Turning to LLNILISRAYLWSGFFERFL, the amyloid nucleation score entry was “inactive”.

GFVQDAEYRISRSCLRCILM yielded an amyloid nucleation score of 4.03 ± 0.089.

Consider GDAWGTSNIDQSWKLYLSGT, for which the amyloid nucleation score is -0.12 ± 0.3.

With YHFFKCRPCSFSWLITGMVK, the amyloid nucleation score is -0.287 ± 0.63.

As for TRNGWGSTGSLQRSQVSVWS, the amyloid nucleation score worked out at 0.25 ± 0.42.

Consider MFMSQIPYQCGVKSNSVISK, for which the amyloid nucleation score is -0.357 ± 0.49.

Regarding GRCWI, the amyloid nucleation score is 1.39 ± 0.24.

Consider VMTARHVLWSNLRVRPRGHD, for which the amyloid nucleation score was 0.867 ± 0.67.

In turn, ELVVPQWGQRRVHDLVCVEP showed an amyloid nucleation score of 1.75 ± 0.29.

SASLSTRVNNTPLPALTRWV: the amyloid nucleation score turned out to be 0.708 ± 0.62.

The substance GVCVQGMFSVSYATILYKVA came in with an amyloid nucleation score of 1.02 ± 0.2.

Substance HSRKFADVKSWLTTDKKRIR showed an amyloid nucleation score of 0.37 ± 0.48.

In turn, YYVERCNGTMVRNFLGATLV registered an amyloid nucleation score of -0.968 ± 0.5.

FFSVSNDHPSFFPANVGEVH gave an amyloid nucleation score of 1.74 ± 0.25.

In the case of NWSVTGCQLRGGRTEGNGIR, the amyloid nucleation score stood at 0.122 ± 0.5.

For TFNISLAWCEFFSHIFLLN, the amyloid nucleation score entry was “inactive”.

For LISWFWWENLKLCCSIFCFI, the amyloid nucleation score amounted to 4.4 ± 0.051.

In the case of FAFAINRFCDSRRPVLCYWD, the amyloid nucleation score was -1.21 ± 1.1.

Substance SHFADSKVHVWSMSQLATCC displayed an amyloid nucleation score of 0.22 ± 0.29.

With VVWVSITKWATRAVISHGDT, the amyloid nucleation score turned out to be 0.617 ± 0.32.

In the case of PGSAIRVVSMRLWGRRRSAG, the amyloid nucleation score worked out at 0.458 ± 0.45.

In turn, SPKTDDTTVMGELYVWLTLG returned an amyloid nucleation score of 8.338 ± 0.036.

The values above are taken from the supplement of paper PMC12042874.
